Experimental data: IntAct's records for PubMed 22262837

B1: Kin of IRRE-like protein 1 (Homo sapiens), Q96J84 (parent)
chain: MLSLLVWILTLSDTFSQGTQTRFSQEPADQTVVAGQRAVLPCVLLNYSGIVQWTKDGLALGMGQGLKAWPRYRVVGSADAGQYNLEITDAELSDDASYECQATEAALRSRRAKLTVLIPPEDTRIDGGPVILLQAGTPHNLTCRAFNAKPAATIIWFRDGTQQEGAVASTELLKDGKRETTVSQLLINPTDLDIGRVFTCRSMNEAIPSGKETSIELDVHHPPTVTLSIEPQTVQEGERVVFTCQATANPEILGYRWAKGGFLIEDAHESRYETNVDYSFFTEPVSCEVHNKVGSTNVSTLVNVHFAPRIVVDPKPTTTDIGSDVTLTCVWVGNPPLTLTWTKKDSNMVLSNSNQLLLKSVTQADAGTYTCRAIVPRIGVAEREVPLYVNGPPIISSEAVQYAVRGDGGKVECFIGSTPPPDRIAWAWKENFLEVGTLERYTVERTNSGSGVLSTLTINNVMEADFQTHYNCTAWNSFGPGTAIIQLEEREVLPVGIIAGATIGASILLIFFFIALVFFLYRRRKGSRKDVTLRKLDIKVETVNREPLTMHSDREDDTASVSTATRVMKAIYSSFKDDVDLKQDLRCDTIDTREEYEMKDPTNGYYNVRAHEDRPSSRAVLYADYRAPGPARFDGRPSSRLSHSSGYAQLNTYSRGPASDYGPEPTPPGPAAPAGTDTTSQLSYENYEKFNSHPFPGAAGYPTYRLGYPQAPPSGLERTPYEAYDPIGKYATATRFSYTSQHSDYGQRFQQRMQTHV

Variants of: B1
Conditions: with zo1_human TJP1, Q07157
Chain of zo1_human TJP1, Q07157 (Q07157 whole entry): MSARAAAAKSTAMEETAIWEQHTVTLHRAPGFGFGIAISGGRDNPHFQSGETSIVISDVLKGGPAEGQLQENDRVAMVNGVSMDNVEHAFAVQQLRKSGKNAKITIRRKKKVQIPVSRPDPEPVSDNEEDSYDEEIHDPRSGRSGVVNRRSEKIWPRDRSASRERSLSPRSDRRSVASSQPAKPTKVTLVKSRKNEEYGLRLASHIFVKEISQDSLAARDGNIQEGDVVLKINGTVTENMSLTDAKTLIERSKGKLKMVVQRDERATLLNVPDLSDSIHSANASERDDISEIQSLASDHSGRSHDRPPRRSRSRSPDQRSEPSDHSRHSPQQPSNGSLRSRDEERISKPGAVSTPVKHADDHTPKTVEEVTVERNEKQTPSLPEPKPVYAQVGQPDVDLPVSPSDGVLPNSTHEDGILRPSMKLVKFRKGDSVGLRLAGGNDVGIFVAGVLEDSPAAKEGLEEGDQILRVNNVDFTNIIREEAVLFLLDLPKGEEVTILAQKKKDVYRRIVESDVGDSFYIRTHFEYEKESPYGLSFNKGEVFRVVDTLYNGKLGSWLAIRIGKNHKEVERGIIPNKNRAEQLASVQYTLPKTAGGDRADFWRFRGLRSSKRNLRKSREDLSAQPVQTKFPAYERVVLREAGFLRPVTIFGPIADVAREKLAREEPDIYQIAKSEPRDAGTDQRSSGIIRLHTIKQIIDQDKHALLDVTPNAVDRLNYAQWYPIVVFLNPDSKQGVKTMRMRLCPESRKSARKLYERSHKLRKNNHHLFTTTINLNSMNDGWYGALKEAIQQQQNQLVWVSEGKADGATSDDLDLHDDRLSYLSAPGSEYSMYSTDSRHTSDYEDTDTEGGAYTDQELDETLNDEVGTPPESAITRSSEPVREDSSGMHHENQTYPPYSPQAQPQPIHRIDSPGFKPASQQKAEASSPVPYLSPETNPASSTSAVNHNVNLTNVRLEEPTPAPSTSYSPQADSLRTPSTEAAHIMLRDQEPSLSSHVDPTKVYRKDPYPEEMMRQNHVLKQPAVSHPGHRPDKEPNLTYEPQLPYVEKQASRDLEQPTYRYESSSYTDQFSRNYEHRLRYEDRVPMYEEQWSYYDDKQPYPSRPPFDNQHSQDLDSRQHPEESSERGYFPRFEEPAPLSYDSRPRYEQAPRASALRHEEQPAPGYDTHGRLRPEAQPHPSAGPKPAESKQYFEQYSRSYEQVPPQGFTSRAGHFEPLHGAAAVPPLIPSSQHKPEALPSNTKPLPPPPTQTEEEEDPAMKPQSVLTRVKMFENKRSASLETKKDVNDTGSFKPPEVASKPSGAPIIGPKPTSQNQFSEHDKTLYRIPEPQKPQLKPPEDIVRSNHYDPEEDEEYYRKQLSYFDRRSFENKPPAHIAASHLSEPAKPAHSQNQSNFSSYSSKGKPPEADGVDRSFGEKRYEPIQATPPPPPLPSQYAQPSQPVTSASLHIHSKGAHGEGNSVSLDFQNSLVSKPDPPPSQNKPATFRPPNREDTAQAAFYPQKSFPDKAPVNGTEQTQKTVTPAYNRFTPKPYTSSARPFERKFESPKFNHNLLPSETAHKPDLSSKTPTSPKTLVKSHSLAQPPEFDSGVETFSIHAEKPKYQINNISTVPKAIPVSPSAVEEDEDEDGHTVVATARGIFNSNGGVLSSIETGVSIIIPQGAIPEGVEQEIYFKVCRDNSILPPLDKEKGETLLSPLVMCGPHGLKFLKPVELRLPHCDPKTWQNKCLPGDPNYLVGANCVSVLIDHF

| Variant | effect of a mutation on the interaction |
| --- | --- |
| K729A | decreasing interaction strength |
| Y730A | decreasing interaction strength |
